{"source": "patent US20190170753A1", "about": "(ICAHN SCHOOL OF MEDICINE AT MOUNT SINAI, published 2019)", "key": {"[1]": {"target": "T1, HCV core peptide 14 (hepatitis C virus, N-terminal biotin; C-terminal amide)", "T1 construct": "range 27-41", "experiment": "peptide EIA, 2 ug/mL IgG;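 further: purified mouse IgG binding to individually well-coated synthetic peptides, detected with peroxidase anti-mouse IgG Fc and o-phenylenediamine, IgG incubated at least 1 h at room temperature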", "description": "(§1) The coated plates were kept dry in a sealed foil pouch and stored at <10 degrees C. until ready for use. A peptide coated plate for each test antibody was blocked using 3% BSA in PBS with 0.5% Tween 20. The blocked plates were washed with distilled water and a 2 ug/mL solution of purified IgG from each test sample diluted in BSA block solution was added to each peptide coated well of the blocked plate and allowed to incubate at room temperature for at least one hour. Following incubation the plates were washed with distilled water. A 200 ng/mL solution of peroxidase labeled F(ab′)2 fragment goat anti-mouse IgG Fc fragment specific (Jackson Immunoresearch) in BSA block solution was added to all wells and incubated at room temperature for 30 minutes. The plates were washed with distilled water and o-phenylenediamine substrate was used as the chromagen to generate signal. Plates were read at 492 nm and the results were analyzed."}, "[2]": {"target": "HCV core peptide 44 (hepatitis C virus, N-terminal biotin; C-terminal amide)", "experiment": "peptide EIA, 2 ug/mL IgG", "description": "as §1"}, "[3]": {"target": "HCV core peptide 89 (hepatitis C virus, N-terminal biotin; C-terminal amide)", "experiment": "peptide EIA, 2 ug/mL IgG", "description": "as §1"}, "[4]": {"target": "T2, Mut1T110N biotin labeled HCV core peptide (hepatitis C virus, biotin labeled (position not given))", "T2 peptide": "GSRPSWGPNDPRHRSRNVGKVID", "experiment": "capture EIA; Ab 1000 ng/mL; bt-peptide 500 ng/mL"}, "[5]": {"target": "T3, Mut6T110S biotin labeled HCV core peptide (hepatitis C virus, biotin labeled (position not given))", "experiment": "capture EIA; Ab 1000 ng/mL; bt-peptide 500 ng/mL"}, "[6]": {"target": "T4, C113WT biotin labeled HCV core peptide (hepatitis C virus, also: biotin labeled, position not given here)", "T4 peptide": "RGSRPSWGPTD", "experiment": "capture EIA; Ab 1000 ng/mL; bt-peptide 500 ng/mL"}, "[7]": {"target": "T5, C113T109N biotin labeled HCV core peptide (hepatitis C virus, also: biotin labeled, position not given here)", "T5 construct": "also called C113T110N", "T5 peptide": "RGSRPSWGPND", "experiment": "capture EIA; Ab 1000 ng/mL; bt-peptide 500 ng/mL"}, "[8]": {"target": "T6, 92-133 biotin labeled HCV core peptide (hepatitis C virus, UniProt Q9WMX2 92-133, chain 1: biotin label (bt-pep). Its position and any spacer are not visible in the passages shown.)", "T6 construct": "Only the label 92-133 is printed", "T6 peptide": "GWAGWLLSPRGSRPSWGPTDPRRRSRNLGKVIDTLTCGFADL", "experiment": "capture EIA; Ab 1000 ng/mL; bt-peptide 500 ng/mL", "description": "(§2) Assay wells were coated with sheep anti-mouse IgG Fc specific antibody and incubated overnight. The coating solution was then removed; the wells blocked using BSA/tween in PBS and then washed with dH2O. […] Next, biotin labeled peptides (diluted to 500 ng/mL in block) were added, the plates incubated for 10 minutes while shaking at 700 rpm and then washed. Peroxidase conjugated streptavidin (diluted to 200 ng/mL in block) was then added to all assay wells, incubated for 20 minutes while shaking at 700 rpm and then washed. Finally, color was developed using OPD and signal quenched using 1N H₂SO₄. Signal was read at 492 nm."}, "[9]": {"target": "T7, WT1STHV biotin labeled HCV core peptide (hepatitis C virus, biotin labeled (position not given))", "T7 peptide": "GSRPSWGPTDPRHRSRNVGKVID", "experiment": "capture EIA; Ab 1000 ng/mL; bt-peptide 500 ng/mL"}, "[10]": {"target": "T2, Mut1T110N biotin labeled HCV core …", "experiment": "capture EIA; Ab 62.5 ng/mL; bt-peptide 500 ng/mL", "description": "as §2"}, "[11]": {"target": "T3, Mut6T110S biotin labeled HCV core …", "experiment": "capture EIA; Ab 62.5 ng/mL; bt-peptide 500 ng/mL", "description": "as §2"}, "[12]": {"target": "T4, C113WT biotin labeled HCV core peptide", "experiment": "capture EIA; Ab 62.5 ng/mL; bt-peptide 500 ng/mL", "description": "as §2"}, "[13]": {"target": "T5, C113T109N biotin labeled HCV core …", "experiment": "capture EIA; Ab 62.5 ng/mL; bt-peptide 500 ng/mL", "description": "as §2"}, "[14]": {"target": "T6, 92-133 biotin labeled HCV core peptide", "experiment": "capture EIA; Ab 62.5 ng/mL; bt-peptide 500 ng/mL", "description": "as §2"}, "[15]": {"target": "T7, WT1STHV biotin labeled HCV core peptide", "experiment": "capture EIA; Ab 62.5 ng/mL; bt-peptide 500 ng/mL", "description": "as §2"}, "[16]": {"target": "T2, Mut1T110N biotin labeled HCV core …", "experiment": "capture EIA; Ab 31.25 ng/mL; bt-peptide 500 ng/mL", "description": "as §2"}, "[17]": {"target": "T3, Mut6T110S biotin labeled HCV core …", "experiment": "capture EIA; Ab 31.25 ng/mL; bt-peptide 500 ng/mL", "description": "as §2"}, "[18]": {"target": "T4, C113WT biotin labeled HCV core peptide", "experiment": "capture EIA; Ab 31.25 ng/mL; bt-peptide 500 ng/mL", "description": "as §2"}, "[19]": {"target": "T5, C113T109N biotin labeled HCV core …", "experiment": "capture EIA; Ab 31.25 ng/mL; bt-peptide 500 ng/mL", "description": "as §2"}, "[20]": {"target": "T6, 92-133 biotin labeled HCV core peptide", "experiment": "capture EIA; Ab 31.25 ng/mL; bt-peptide 500 ng/mL", "description": "as §2"}, "[21]": {"target": "T7, WT1STHV biotin labeled HCV core peptide", "experiment": "capture EIA; Ab 31.25 ng/mL; bt-peptide 500 ng/mL", "description": "as §2"}, "[22]": {"target": "T2, Mut1T110N biotin labeled HCV core …", "experiment": "capture EIA; Ab 7.813 ng/mL; bt-peptide 500 ng/mL", "description": "as §2"}, "[23]": {"target": "T3, Mut6T110S biotin labeled HCV core …", "experiment": "capture EIA; Ab 7.813 ng/mL; bt-peptide 500 ng/mL", "description": "as §2"}, "[24]": {"target": "T4, C113WT biotin labeled HCV core peptide", "experiment": "capture EIA; Ab 7.813 ng/mL; bt-peptide 500 ng/mL", "description": "as §2"}, "[25]": {"target": "T5, C113T109N biotin labeled HCV core …", "experiment": "capture EIA; Ab 7.813 ng/mL; bt-peptide 500 ng/mL", "description": "as §2"}, "[26]": {"target": "T6, 92-133 biotin labeled HCV core peptide", "experiment": "capture EIA; Ab 7.813 ng/mL; bt-peptide 500 ng/mL", "description": "as §2"}, "[27]": {"target": "T7, WT1STHV biotin labeled HCV core peptide", "experiment": "capture EIA; Ab 7.813 ng/mL; bt-peptide 500 ng/mL", "description": "as §2"}}, "note": "Where no end group is shown, it is not given here.", "data": [{"binder": "Neo4 mouse monoclonal antibody (antibody, V domains shown, Mouse hybridoma antibody, isotype IgG1, purified with Protein G; also called HCV Neo4) VH: QIQLKESGPAVIKPSQSLSLTCIVSGFSITSSVYCWQWIRQPPGKGLEWMGRICYDGSVDYSPSITSRGTISRDTSLNKVFFQLSSVTNEDTAMYYCSRENHIDYYDTTYPSFDVWGAGTTVTVSS VL: DIVLTQSPASLIVSLGQRATISCRASKSVNEYGYTYMHWYQQKPGLPPKLLIYLASNLDSGVPARFSGSGSGTDFTLNIHPVEEEDAATYYCQHSRELPYTFGGGTKLEIKR", "values": [{"measurement": "OD (A492 nm)", "setting": "[1]", "result": 0.06, "unit": "OD"}, {"measurement": "OD (A492 nm)", "setting": "[2]", "result": 0.05, "unit": "OD"}, {"measurement": "OD (A492 nm)", "setting": "[3]", "result": 0.05, "unit": "OD"}, {"measurement": "signal at 492 nm", "setting": "[4]", "result": 0.0678, "unit": "A492"}, {"measurement": "signal at 492 nm", "setting": "[5]", "result": 1.17, "unit": "A492"}, {"measurement": "signal at 492 nm", "setting": "[6]", "result": 0.222, "unit": "A492"}, {"measurement": "signal at 492 nm", "setting": "[7]", "result": 0.0591, "unit": "A492"}, {"measurement": "signal at 492 nm", "setting": "[8]", "result": 1.41, "unit": "A492"}, {"measurement": "signal at 492 nm", "setting": "[9]", "result": 2, "unit": "A492"}, {"measurement": "signal at 492 nm", "setting": "[10]", "result": 0.139, "unit": "A492"}, {"measurement": "signal at 492 nm", "setting": "[11]", "result": 1.11, "unit": "A492"}, {"measurement": "signal at 492 nm", "setting": "[12]", "result": 0.0626, "unit": "A492"}, {"measurement": "signal at 492 nm", "setting": "[13]", "result": 0.111, "unit": "A492"}, {"measurement": "signal at 492 nm", "setting": "[14]", "result": 1.47, "unit": "A492"}, {"measurement": "signal at 492 nm", "setting": "[15]", "result": 1.85, "unit": "A492"}, {"measurement": "signal at 492 nm", "setting": "[16]", "result": 0.0938, "unit": "A492"}, {"measurement": "signal at 492 nm", "setting": "[17]", "result": 0.48, "unit": "A492"}, {"measurement": "signal at 492 nm", "setting": "[18]", "result": 0.0622, "unit": "A492"}, {"measurement": "signal at 492 nm", "setting": "[19]", "result": 0.0815, "unit": "A492"}, {"measurement": "signal at 492 nm", "setting": "[20]", "result": 1.11, "unit": "A492"}, {"measurement": "signal at 492 nm", "setting": "[21]", "result": 1.67, "unit": "A492"}, {"measurement": "signal at 492 nm", "setting": "[22]", "result": 0.0729, "unit": "A492"}, {"measurement": "signal at 492 nm", "setting": "[23]", "result": 0.132, "unit": "A492"}, {"measurement": "signal at 492 nm", "setting": "[24]", "result": 0.0731, "unit": "A492"}, {"measurement": "signal at 492 nm", "setting": "[25]", "result": 0.0751, "unit": "A492"}, {"measurement": "signal at 492 nm", "setting": "[26]", "result": 0.45, "unit": "A492"}, {"measurement": "signal at 492 nm", "setting": "[27]", "result": 1.04, "unit": "A492"}]}]}
